Laboratory results as given in PMC4389238, “Non-canonical active site architecture of the radical SAM thiamin pyrimidine synthase” (Nature Communications, 2015).

How the values were obtained:
[1] = target: the molecule itself; assay: crystal structure; holo CcThiC with [4Fe-4S] cluster, no substrates; anaerobic, 140 mM HEPES pH 9.2, 7.5% PEG8000; space group C2; 2.93 Å
[2] = target: the molecule itself; assay: crystal structure; AtThiC with [4Fe-4S] cluster co-crystallised anaerobically with combinations of IRN, AIR, SAH, 5'-dAdo, L-Met, Zn or Fe; hanging drop, room temperature; space groups P3(2)21 and C2; 1.25-1.84 Å

Protein | binding result [1] | binding result [2]
Caulobacter crescentus ThiC, full length (enzyme, ThiC (thiamin pyrimidine synthase), Caulobacter crescentus; Holds a [4Fe-4S] cluster; also called CcThiC; holo CcThiC; not shown: His6, N-terminal, cleaved) not shown | binds | 
Arabidopsis thaliana ThiC, ΔN71-AtThiC (residues 1-71 removed) (enzyme, ThiC (thiamin pyrimidine synthase, HMP-P synthase), Arabidopsis thaliana; full-length protein has 644 residues; Holds a [4Fe-4S] cluster and an additional metal (Fe or Zn); The final 55 residues are not visible in the electron density.}; also called thiamin pyrimidine synthase; not shown: His6, N-terminal, cleaved) not shown |  | binds
